Experimental data reported in article PMC5737080.
Where two headings read alike, the source gives them in different places.

Legend:
[1] = molecular target: β-S109C/Q299C/R103S-(AF488)2 (E. coli) (UniProt P0A988); assay: other fluorescence titration
[2] = molecular target: β-S109C/Q299C-(AF488)2 (E. coli) (UniProt P0A988); assay: other fluorescence titration
[3] = molecular target: β-S109C/Q299C/R103S-(AF488)2 (E. coli) (UniProt P0A988); assay: stopped-flow fluorescence kinetics
[4] = molecular target: β-R103C/I305C-(AF488)2 (E. coli) (UniProt P0A988); assay: stopped-flow fluorescence kinetics
β-S109C-AF488 (E. coli) = β-S109C-AF488 (E. coli) (UniProt P0A988); assay: stopped-flow fluorescence kinetics
[5] = molecular target: β-S109C/Q299C/R103S-(AF488)2 (E. coli) (UniProt P0A988); assay: other fluorescence titration; remark: listed apart in the source
[6] = molecular target: β-S109C/Q299C-(AF488)2 (E. coli) (UniProt P0A988); assay: other fluorescence titration; remark: listed apart in the source
[7] = molecular target: β-S109C/Q299C/R103S-(AF488)2 (E. coli) (UniProt P0A988); assay: stopped-flow fluorescence kinetics; remark: listed apart in the source

Kd [1]: 5 nM
Kd [2]: 5.3 nM
koff, fast phase (k f) [3]: 0.039 s⁻¹
koff, slow phase (k s) [3]: 0.0098 s⁻¹
k close (reverse of step 2 of the bind-open-lock model) [4]: 4 s⁻¹
k open (step 2 of the bind-open-lock model) [4]: 9 s⁻¹
koff, fast phase (k f) [4]: 0.058 s⁻¹
koff, slow phase (k s) [4]: 0.011 s⁻¹
limiting observed rate constant, rapid phase of opening [4]: 11 s⁻¹
limiting observed rate constant, slow phase of opening [4]: 1.5 s⁻¹
maximum observed rate constant, slow phase (clamp opening step) (β-S109C-AF488 (E. coli)): 8 s⁻¹
Kd [5]: 4.2 nM
Kd [6]: 7 nM
koff, fast phase (k f) [7]: 0.046 s⁻¹
koff, slow phase (k s) [7]: 0.012 s⁻¹
Substance: E. coli clamp loader, γ complex (γ3δδ’ψχ subunits) (from UniProt P06710-2;P28630;P28631;P28905;P28632)
